The Kd is the constant that tells how readily two partners part at equilibrium. A lower Kd goes with tighter binding. Broadly, the Km is the concentration of substrate that gives half-maximal velocity. In general, kcat refers to the maximal rate divided by the concentration of active sites. A word on the kcat/Km: it is the turnover number divided by the Michaelis constant.

This is an account of results in paper PMC10086132, “Riboflavin kinase and pyridoxine 5′-phosphate oxidase complex formation envisages transient interactions for FMN cofactor delivery” (Frontiers in Molecular Biosciences, 2023).

In data set [1] the target is T1, PNPOx (pyridoxine-5′-phosphate oxidase; aPNPOx for the apo-form) (Homo sapiens, UniProt Q9NVS9).
T1 construct: gene PNPO; pET28a(+) in Escherichia coli, HisTrap-purified, tag removal not mentioned; homodimer; FMN removed for the apo-form
T1 sequence (Q9NVS9 1-261): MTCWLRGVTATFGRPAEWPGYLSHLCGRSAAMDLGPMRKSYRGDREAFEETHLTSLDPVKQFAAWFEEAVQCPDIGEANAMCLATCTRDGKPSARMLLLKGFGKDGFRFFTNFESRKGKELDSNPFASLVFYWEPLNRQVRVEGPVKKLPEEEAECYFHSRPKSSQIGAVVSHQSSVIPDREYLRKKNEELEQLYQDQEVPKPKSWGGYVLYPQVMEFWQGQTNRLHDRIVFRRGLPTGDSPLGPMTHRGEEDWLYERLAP
As to the kind of experiment: stopped-flow flavin fluorescence quenching. It is filed as binding. Particulars: faster of two association processes, 20 mM PIPES pH 7.0, 0.3 mM MgCl2, 25 °C.

For data set [2], the target named is T1, PNPOx (pyridoxine-5′-phosphate oxidase; aPNPOx for the apo-form). As to the kind of experiment: thermal unfolding followed by Trp and FMN fluorescence. It is filed as binding. Particulars: holo-form versus apo-form; 20 mM PIPES pH 7.0.
The target of data set [3] is T2, RFK (riboflavin kinase; hRFK when loaded with FMN:ADP:Mg2+) (Homo sapiens, UniProt Q969G6).
T2 construct: recombinant, purified in apo-form by a previously described procedure
T2 sequence (Q969G6 1-155): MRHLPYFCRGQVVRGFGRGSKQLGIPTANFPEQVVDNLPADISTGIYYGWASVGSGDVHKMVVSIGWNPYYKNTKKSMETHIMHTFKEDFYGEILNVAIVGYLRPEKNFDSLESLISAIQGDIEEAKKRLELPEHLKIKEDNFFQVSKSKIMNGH
The description is as above. Particulars: FMN bound together with ADP:Mg2+ (hRFK) versus ligand-free RFK; 20 mM PIPES pH 7.0. It counts as binding.

Data set [4] deals with T3, RFK (Homo sapiens, UniProt Q969G6).
T3 chain: T2 sequence (Q969G6 1-155)
As to the kind of experiment: ITC. (In general: Isothermal titration calorimetry measures the heat released or taken up as one component is titrated into another.)

Data set [5] concerns the target T3, RFK. As to the kind of experiment: stopped-flow fluorescence.
Substrate in the data set “purified protein”: Cc1cc2nc3c(=O)[nH]c(=O)nc-3n(C[C@H](O)[C@H](O)[C@H](O)CO)c2cc1C
As to the kind of experiment: purified protein. The conditions noted are these: no aPNPOx, 400 µM ATP, 0.3 mM MgCl2, 20 mM PIPES pH 7.0, 25 °C.

Regarding `Cc1cc2nc3c(=O)[nH]c(=O)nc-3n(C[C@H](O)[C@H](O)[C@H](O)COP(=O)(O)O)c2cc1C` [FMN], the “k on1 ^FMN” value in data set [1] stood at 340000 ± 20000 M⁻¹ s⁻¹. Further, the “increase of Tm” value in data set [2] was “Both proteins were considerably less stable in apo-forms regarding their respective holo-forms”; in data set [3], ~ 32 °C.

B1: PNPOx (protein)
chain: T1 sequence (Q9NVS9 1-261)
modifications: apo-PNPOx homodimer; ligand-free RFK
Turning to B1, the Kd with RFK [4] was 14000 nM.

B2: PNPOx (protein)
chain: T1 sequence (Q9NVS9 1-261)
modifications: apo-PNPOx homodimer; RFK loaded with FMN and ADP:Mg2+
As for B2, the results for the Kd with RFK [5] and in the data set with RFK [4] were around 1000 nM and 900 nM, respectively.

B3: PNPOx (protein)
chain: T1 sequence (Q9NVS9 1-261)
modifications: holo-PNPOx homodimer with FMN; RFK loaded with FMN and ADP:Mg2+; first binding site
B3 registered a Kd in the data set with RFK [4] of 130 nM.

B4: RFK (riboflavin kinase; hRFK when loaded with FMN:ADP:Mg2+) (Homo sapiens) (protein)
chain: T2 sequence (Q969G6 1-155)
Consider B4, for which, in the data set “purified protein”, the Km is 2.2 ± 0.3 µM, the kcat was determined as 1 s⁻¹ and the kcat/Km worked out at 450000 M⁻¹ s⁻¹.
